Assay results from the supplement of paper PMC7877785.
± gives the uncertainty stated by the source.

Assay: self-splicing fitness, log relative to wild type (ln ratio); higher = more splicing; Tetrahymena group I intron in knt gene, E. coli kanamycin selection, DiMSum; sequences stand for … in CUCUCU…GGAGGGAAAAGUUAUCAGGCAUGCACCUGGUAGCUAGUCUUUAAACCAAUAGAUUGCAUCGGUUUAAAAGGCAAGACCGUCAAAUUGCGGGAAAGGGGUCAACAGCCGUUCAGUACCAAGUCUCAGGGGAAACUUUGAGAUGGCCUUGCAAAGGGUAUGGUAAUAAGCUGACGGACAUGGUCCUAACCACGCAGCCAAGUCCUAAGUCAACAGAUCUUCUGUUGAUAUGGAUGCAGUUCACAGACUAAAUGUCGGUCGGGGAAGAUGUAUUCUUCUCAUAAGAUAUAGUCGGACCUCUCCUUAAUGGGAGCUAGCGGAUGAAGUGAUGCAACACUGGAGCCGCUGGGAACUAAUUUGUAUGCGAAAGUAUAUUGAUUAGUUUUGGAGUACUCGUGGUCG
Summary of the method: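 The eight P1ex-region nucleotides of an intron in the knt kanamycin-resistance gene on pET-22b(+) were all randomised and the library put into E. coli BL21(DE3). Six replicate transformations were grown overnight at 37°C or 30°C on LB agar with or without 25 μg/mL kanamycin, together with 100 μg/mL carbenicillin, 50 μM IPTG and 0.2% rhamnose. Colonies were pooled and amplicon-sequenced on an Illumina HiSeq 2500. Fitness from DiMSum is the error-weighted combination of wild-type-normalised replicate fold changes, kanamycin over none.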

| Sequence | self-splicing fitness (ln) (30 °C) | self-splicing fitness (ln) (37 °C) |
| --- | --- | --- |
| GUGAAGCAAUAUUACGAUGA | -0.639 ± 0.075 | 0.631 ± 0.093 |
| GUGAAGCAAUAUUACGCAAU | -0.705 ± 0.088 | -0.623 ± 0.12 |
| GUGAAGCAAUAUUACGCGAG | -0.336 ± 0.057 | -0.0325 ± 0.07 |
| GUGAAGCAAUAUUACGCGGC | -2.03 ± 0.33 | -1.24 ± 0.4 |
| GUGAAGCAAUAUUACGCGGG | -2.8 ± 0.19 | -1.55 ± 0.2 |
| GUGAAGCAAUAUUACGCUGC | -3.05 ± 0.21 | -2.19 ± 0.21 |
| GUGAAGCAAUAUUACGCUUU | -4.83 ± 0.36 | -2.84 ± 0.43 |
| GUGAAGCAAUAUUACGGAGU | -1.3 ± 0.072 | -0.63 ± 0.091 |
| GUGAAGCAAUAUUACGGCGG | -1.24 ± 0.13 | -1.26 ± 0.14 |
| GUGAAGCAAUAUUACGGUCU | 0.172 ± 0.098 | 0.824 ± 0.096 |
| GUGAAGCAAUAUUACGGUUC | -2.13 ± 0.12 | -1.19 ± 0.14 |
| GUGAAGCAAUAUUACGUACA | -0.778 ± 0.082 | 0.51 ± 0.12 |
| GUGAAGCAAUAUUACGUACU | -1.14 ± 0.055 | -0.0726 ± 0.07 |
| GUGAAGCAAUAUUACGUAGU | -2.19 ± 0.064 | -1.1 ± 0.08 |
| GUGAAGCAAUAUUACGUGAG | -1.26 ± 0.076 | -0.555 ± 0.097 |
| GUGAAGCAAUAUUACGUUUU | -4.1 ± 0.14 | -3.88 ± 0.22 |
| GUGCAGCAAUAUUACGAAAA | -2.34 ± 0.19 | -2.49 ± 0.22 |
| GUGCAGCAAUAUUACGAACG | -2.4 ± 0.2 | -0.213 ± 0.14 |
| GUGCAGCAAUAUUACGACGA | -0.272 ± 0.15 | 0.701 ± 0.14 |

| Sequence | self-splicing fitness (ln) (30 °C) | self-splicing fitness (ln) (37 °C) |
| --- | --- | --- |
| GUGCAGCAAUAUUACGAUGA | -0.903 ± 0.14 | -0.772 ± 0.14 |
| GUGCAGCAAUAUUACGCAAA | -0.928 ± 0.1 | -0.119 ± 0.13 |
| GUGCAGCAAUAUUACGCACU | -3.41 ± 0.28 | -2.3 ± 0.37 |
| GUGCAGCAAUAUUACGCCAU | -2.23 ± 0.16 | -2.62 ± 0.23 |
| GUGCAGCAAUAUUACGCCGA | -1.56 ± 0.13 | -0.832 ± 0.12 |
| GUGCAGCAAUAUUACGCCUG | -2.95 ± 0.2 | -2.49 ± 0.26 |
| GUGCAGCAAUAUUACGCGCA | -2.62 ± 0.27 | – |
| GUGCAGCAAUAUUACGCGGA | -2.35 ± 0.27 | -1.08 ± 0.12 |
| GUGCAGCAAUAUUACGCUAG | -3.71 ± 0.31 | -2.47 ± 0.32 |
| GUGCAGCAAUAUUACGCUCU | -1.77 ± 0.14 | -0.404 ± 0.15 |
| GUGCAGCAAUAUUACGCUGA | -2.38 ± 0.17 | -1.6 ± 0.16 |
| GUGCAGCAAUAUUACGGAUC | 0.0925 ± 0.13 | 0.198 ± 0.14 |
| GUGCAGCAAUAUUACGGCCG | -1.8 ± 0.26 | -1.12 ± 0.3 |
| GUGCAGCAAUAUUACGGCUU | -0.306 ± 0.052 | -0.128 ± 0.072 |
| GUGCAGCAAUAUUACGGGUA | -2.35 ± 0.1 | -2.12 ± 0.12 |
| GUGCAGCAAUAUUACGGGUG | -3.36 ± 0.12 | -1.87 ± 0.12 |
| GUGCAGCAAUAUUACGUACA | – | -2.03 ± 0.34 |
| GUGCAGCAAUAUUACGUAUA | -1.42 ± 0.073 | 0.0392 ± 0.069 |
| GUGCAGCAAUAUUACGUAUC | -1.69 ± 0.13 | -1.79 ± 0.13 |
